Source: patent US20130288274A1 (BIO RAD LABORATORIES, published 2013)

Biological target: the molecule itself
Test: SDS-PAGE and size-exclusion chromatography; self-association
Method: The affinity purified protein was analyzed by SDS-PAGE gel electrophoresis (FIG. 1). The D2-hexamers that were further purified on the size-exclusion column as described above were analyzed by SDS-PAGE (FIG. 1). […] This aggregation of the hexamers is so strong that it is not dissociated under the denaturing conditions used in SDS-PAGE. Additionally, both hexamer proteins migrated at the position of about 45 kd in a size-exclusion chromatogram. Without being bound to a particular theory, the surprising tendency of the hexamers to aggregate to form a trimer of hexamers may contribute to the improved immunoreactivity of the D2 hexamer.

| Protein | binding result |
| --- | --- |
| classic D2 hexamer with His tag (His-tagged recombinant deamidated gliadin protein) (other, also called classic DGP; DGP hexamer) MRGSHHHHHHGSPEFQPEQPQQSFPEQERPFGGGGSQPEQPQQSFPEQERPFGGGGSQPEQPQQSFPEQERPFGGGGSQPEQPQQSFPEQERPFGGGGSQPEQPQQSFPEQERPFGGGGSQPEQPQQSFPEQERPF | binds |
| lysine-containing D2 hexamer with His tag (His-tagged Recombinant Deamidated Gliadin Peptide with a lysine substituted for a glutamic acid residue at position … (other, also called lysine-containing DGP; lysine-containing DGP hexamer) MRGSHHHHHHGSPKFQPEQPQQSFPEQERPFGGGGSQPEQPQQSFPEQERPFGGGGSQPEQPQQSFPEQERPFGGGGSQPEQPQQSFPEQERPFGGGGSQPEQPQQSFPEQERPFGGGGSQPEQPQQSFPEQERPF | binds |
